This note sets out measurements from patent publication US20240124606A1.

One test deals with mouse CD73 (mouse) (UniProt Q61503). Nature of the test: flow cytometry, murine E0771 breast cancer cells, isotype control; PE against SSC-A. (In general: Flow cytometry measures light scatter and fluorescence of single cells or particles in a stream.)
Test [1] deals with T1, human CD73 (human) (UniProt P21589).
T1 sequence: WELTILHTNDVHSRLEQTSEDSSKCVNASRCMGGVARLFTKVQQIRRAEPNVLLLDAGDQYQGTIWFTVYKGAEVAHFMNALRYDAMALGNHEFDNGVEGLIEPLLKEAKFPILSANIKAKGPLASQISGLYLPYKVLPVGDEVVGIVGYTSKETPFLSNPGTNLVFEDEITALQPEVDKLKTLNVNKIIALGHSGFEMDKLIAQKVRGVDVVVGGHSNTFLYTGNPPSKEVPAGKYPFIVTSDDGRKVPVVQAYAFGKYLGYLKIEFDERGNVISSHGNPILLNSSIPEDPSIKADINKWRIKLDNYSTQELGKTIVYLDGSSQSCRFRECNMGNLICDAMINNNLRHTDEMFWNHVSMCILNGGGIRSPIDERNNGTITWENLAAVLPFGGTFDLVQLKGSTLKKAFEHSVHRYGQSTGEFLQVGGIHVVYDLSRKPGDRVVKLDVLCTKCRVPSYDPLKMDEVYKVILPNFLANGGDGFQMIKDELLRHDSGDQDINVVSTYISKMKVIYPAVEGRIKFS
As to the kind of experiment: flow cytometry, human PC3 prostate cancer cells, isotype control plot above the 2C5 plot (its gate is drawn larger than in the other plots); CD73-PE against SSC-A.

For test [2], the target named is T1, human CD73 (human). Nature of the test: flow cytometry, human PC3 prostate cancer cells, isotype control plot above the E7 plot; CD73-PE against SSC-A.
The target of test [3] is T1, human CD73 (human). As to the kind of experiment: flow cytometry, human PC3 prostate cancer cells, 10 ug/ml antibody, PE anti-mIgG secondary antibody; CD73-PE against SSC-A.

Chain of UniProt Q61503 (Q61503 29-551 limits assumed): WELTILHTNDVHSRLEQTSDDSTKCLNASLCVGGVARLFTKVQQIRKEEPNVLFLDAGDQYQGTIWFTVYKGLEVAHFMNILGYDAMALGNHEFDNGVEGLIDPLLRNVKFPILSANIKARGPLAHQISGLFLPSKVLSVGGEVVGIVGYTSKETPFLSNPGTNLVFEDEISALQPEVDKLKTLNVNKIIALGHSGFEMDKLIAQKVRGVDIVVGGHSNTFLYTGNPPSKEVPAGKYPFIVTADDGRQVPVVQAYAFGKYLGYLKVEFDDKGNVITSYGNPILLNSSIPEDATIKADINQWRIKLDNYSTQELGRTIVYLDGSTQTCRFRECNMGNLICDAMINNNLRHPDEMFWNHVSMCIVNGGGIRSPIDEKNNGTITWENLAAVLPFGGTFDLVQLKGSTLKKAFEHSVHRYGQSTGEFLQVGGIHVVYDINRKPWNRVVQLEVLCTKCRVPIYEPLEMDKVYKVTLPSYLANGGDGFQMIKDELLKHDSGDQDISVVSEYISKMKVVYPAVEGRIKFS

On to Isotype (antibody), for which the percent of cells in the CD73 gate in the test with mouse CD73 (mouse) was 0.8. Also, the percent of cells in the CD73-PE gate with human CD73 (human) [1] amounted to 2.84; with human CD73 (human) [2], 1.02.

B1: 2C5 (a commercially-available anti-CD73 mAb, Astrazeneca) (antibody, from another filing, V domains shown)
VH: EVQLLESGGGLVQPGGSLRLSCAASGFTFSSYAMSWVRQAPGKGLEWVSAISGSGGSTYYADSVKRRFTISRDNSKNTLYLQMNSLRAEDTAVYYCARDKGYYWYMDVWGQGTMVTVSS
VL: QSVLTQPPSVSVSPGQTASITCSGDKVGDKYASWYQQKPGQSPVLVIYEDTKRLSGIPERFSGSNSGNTATLTISGTQAMDEADYYCQAWDTSFWVFGGGTKLTVL
As for B1, the percent of cells in the CD73-PE gate with human CD73 (human) [3] amounted to 99.7.
